Paper PMC13354580 (Nature Communications, 2026)

Target: fluorescent Aβ (1–42) (fluorophore label; fluorophore and position not stated)
Assay: fluorescence polarisation

fold reduction in the calculated Kd against WT: ~11 fold
B1: ABAD Y168G mutant, purified protein (enzyme, human)
chain: MAAACRSVKGLVAVITGGASGLGLATAERLVGQGASAVLLDLPNSGGEAQAKKLGNNCVFAPADVTSEKDVQTALALAKGKFGRVDVAVNCAGIAVASKTYNLKKGQTHTLEDFQRVLDVNLMGTFNVIRLVAGEMGQNEPDQGGQRGVIINTASVAAFEGQVGQAAGSASKGGIVGMTLPIARDLAPIGIRVMTIAPGLFGTPLLTSLPEKVCNFLASQVPFPSRLGDPAEYAHLVQAIIENPFLNGEVIRLDGAIRMQP
